Experimental data published in article PMC7408065, “Heterodimeric Radiotracer Targeting PSMA and GRPR for Imaging of Prostate Cancer—Optimization of the Affinity towards PSMA by Linker Modification in Murine Model” (Pharmaceutics, 2020).
Numbered stars: 1 amine (or outer) side, 2 acyl side, 3 side chain; on linkers, the order of the positions; unused ones are H or OH. Square brackets hold non-standard residues; d marks the D form. Peptide text beside a SMILES is read from it. * marks the point of attachment. NOTA = O=C(O)CN1CCN(CC(=O)O)CCN(CC(=O)*)CC1; γGlu = O=C(O)[C@H](CCC(=O)[*:2])N[*:1]; Sta = CC(C)C[C@H](N)[C@@H](O)CC(=O)O; AEEA = NCCOCCOCC(=O)O; Aoc = NCCCCCCCC(=O)O; CO = O=C([*:1])[*:2]

Assays:
in vivo = assay: in vivo; parameters: species or system BALB/c nu/nu mice; details: BALB/c nu/nu, mouse, 40 pmol/animal, total radioactivity; for tissue uptake at 1 h: Activity uptake; for tissue to tissue ratio at 1 h / tissue to tissue ratio at 3 h / tissue to tissue ratio at 24 h: Tumor-to-organ ratio
Method: (§1) The in vivo experiments were performed using BALB/c nu/nu mice bearing PC3-pip xenografts. The mice were implanted with 5 × 10^6 PC3-pip cells 12 days prior to the experiments. In vivo experiments were planned and performed in accordance with the national legislation on laboratory animals’ protection and were approved by the Ethics Committee for Animal Research in Uppsala, Sweden. PC3-pip tumor-bearing mice were injected with 40 pmol (30 kBq) of [^111In]In-BQ7812 per mouse. Groups were also co-injected with 7.5 nmol of non-labeled NOTA-PEG4-RM26 and/or 7.5 nmol of non-labeled PSMA-11 to block GRPR and/or PSMA. Mice were euthanized at 1, 3 and 24 h pi. Organs of interest were collected, weighed and the activity uptake in each organ was measured using a gamma counter.

PC3-pip xenografts = assay: in vivo; parameters: species or system BALB/c nu/nu mice; details: mouse
Method: as §1

[1] = Distribution coefficient (LogD), n-octanol/water; assay type: physicochemical; details: indium-111 labeled compound
Method: The tube was vortexed, centrifuged and fractions (100 µL) from each phase were collected and activity was measured using a gamma counter. The experiment was repeated twice for each compound.

For CC(C)C[C@H](NC(=O)C[C@H](O)[C@H](CC(C)C)NC(=O)[C@H](Cc1c[nH]cn1)NC(=O)CNC(=O)[C@@H](NC(=O)[C@H](C)NC(=O)[C@H](Cc1c[nH]c2ccccc12)NC(=O)[C@H](CCC(N)=O)NC(=O)[C@@H](Cc1ccccc1)NC(=O)COCCOCCNC(=O)[C@H](CCCCNC(=O)CN1CCN(CC(=O)O)CCN(CC(=O)O)CC1)NC(=O)[C@H](Cc1ccccc1)NC(=O)CCCCCCCNC(=O)CC[C@H](NC(=O)N[C@@H](CCC(=O)O)C(=O)O)C(=O)O)C(C)C)C(N)=O [[^111In]In-BQ7812, metal not drawn] ({Glu-CO-γGlu-Aoc}-FK(NOTA)[AEEA][dF]QWAVGH[Sta]L-NH2), the tissue uptake at 1 h (in vivo; Lung) was 1.34 %ID/g, the tissue uptake at 1 h (in vivo; Pancreas) was 5.83 %ID/g and the tissue to tissue ratio at 1 h (in vivo; Blood) was 11.7 ± 2.3. The tissue to tissue ratio at 3 h (in vivo; Blood) was 55.5 ± 15.6, the tissue to tissue ratio at 24 h (in vivo; Blood) was 68.9 ± 10.4 and the tissue to tissue ratio at 1 h (in vivo; Bone) was 24.5 ± 3.25. For the same compound, the tissue to tissue ratio at 3 h (in vivo; Bone) was 35.1 ± 25.7, the tissue to tissue ratio at 24 h (in vivo; Bone) was 10.9 ± 2.46 and the tissue to tissue ratio at 1 h (in vivo; Kidney) was 0.27 ± 0.07. It also gave a tissue to tissue ratio at 3 h (in vivo; Kidney) of 0.39 ± 0.09, a tissue to tissue ratio at 24 h (in vivo; Kidney) of 0.18 ± 0.02 and a tissue to tissue ratio at 1 h (in vivo; Liver) of 4.56 ± 0.77. It also gave a tissue to tissue ratio at 3 h (in vivo; Liver) of 3.08 ± 1, a tissue to tissue ratio at 24 h (in vivo; Liver) of 1.04 ± 0.15 and a tissue to tissue ratio at 1 h (in vivo; Lung) of 12.3 ± 1.34. The tissue to tissue ratio at 3 h (in vivo; Lung) was 25.3 ± 10, the tissue to tissue ratio at 24 h (in vivo; Lung) was 13.9 ± 1.65 and the tissue to tissue ratio at 1 h (in vivo; Muscle) was 41 ± 7.76. It also gave a tissue to tissue ratio at 3 h (in vivo; Muscle) of 53.3 ± 24.4, a tissue to tissue ratio at 24 h (in vivo; Muscle) of 23.6 ± 4.58 and a tissue to tissue ratio at 1 h (in vivo; Pancreas) of 2.77 ± 0.43. For the same compound, the tissue to tissue ratio at 3 h (in vivo; Pancreas) was 10.9 ± 3.05, the tissue to tissue ratio at 24 h (in vivo; Pancreas) was 8.19 ± 1.92 and the tissue to tissue ratio at 1 h (in vivo; Salivary glands) was 18.7 ± 2.6. For the same compound, the tissue to tissue ratio at 3 h (in vivo; Salivary glands) was 20.6 ± 7.98, the tissue to tissue ratio at 24 h (in vivo; Salivary glands) was 7.39 ± 1.88 and the tissue to tissue ratio at 1 h (in vivo; Small intestine) was 9.31 ± 1.8. It also gave a tissue to tissue ratio at 3 h (in vivo; Small intestine) of 13.4 ± 3.68, a tissue to tissue ratio at 24 h (in vivo; Small intestine) of 5.52 ± 2.17 and a tissue to tissue ratio at 1 h (in vivo; Spleen) of 11.5 ± 2.37. It also gave a tissue to tissue ratio at 3 h (in vivo; Spleen) of 20.8 ± 5.1, a tissue to tissue ratio at 24 h (in vivo; Spleen) of 6.32 ± 1.59 and a tissue to tissue ratio at 1 h (in vivo; Stomach) of 12.5 ± 2.36. For the same compound, the tissue to tissue ratio at 3 h (in vivo; Stomach) was 18.3 ± 2.8, the tissue to tissue ratio at 24 h (in vivo; Stomach) was 10.5 ± 2.28 and the “tumor-to-liver ratio” value (PC3-pip xenografts) was “over five”.
For CC(C)C[C@H](NC(=O)C[C@H](O)[C@H](CC(C)C)NC(=O)[C@H](Cc1c[nH]cn1)NC(=O)CNC(=O)[C@@H](NC(=O)[C@H](C)NC(=O)[C@H](Cc1c[nH]c2ccccc12)NC(=O)[C@H](CCC(N)=O)NC(=O)[C@@H](Cc1ccccc1)NC(=O)COCCOCCNC(=O)[C@H](CCCCNC(=O)CN1CCN(CC(=O)O)CCN(CC(=O)O)CC1)NC(=O)[C@H](Cc1ccccc1)NC(=O)CCCCCCCNC(=O)CC[C@H](NC(=O)N[C@@H](CCC(=O)O)C(=O)O)C(=O)O)C(C)C)C(N)=O [BQ7812] ({Glu-CO-γGlu-Aoc}-FK(NOTA)[AEEA][dF]QWAVGH[Sta]L-NH2), the logD [1] was -1.44.
